# PMC6009593
# Target: Mre11 (PfuMR complex);Rad50 (PfuMR complex) (Pyrococcus furiosus;Pyrococcus furiosus, UniProt Q8U1N9;P58301 1-426;1-882, |)
# Assay: EMSA
# Mre11 (PfuMR complex);Rad50 (PfuMR complex), sequence (P58301 whole entry, one chain of several): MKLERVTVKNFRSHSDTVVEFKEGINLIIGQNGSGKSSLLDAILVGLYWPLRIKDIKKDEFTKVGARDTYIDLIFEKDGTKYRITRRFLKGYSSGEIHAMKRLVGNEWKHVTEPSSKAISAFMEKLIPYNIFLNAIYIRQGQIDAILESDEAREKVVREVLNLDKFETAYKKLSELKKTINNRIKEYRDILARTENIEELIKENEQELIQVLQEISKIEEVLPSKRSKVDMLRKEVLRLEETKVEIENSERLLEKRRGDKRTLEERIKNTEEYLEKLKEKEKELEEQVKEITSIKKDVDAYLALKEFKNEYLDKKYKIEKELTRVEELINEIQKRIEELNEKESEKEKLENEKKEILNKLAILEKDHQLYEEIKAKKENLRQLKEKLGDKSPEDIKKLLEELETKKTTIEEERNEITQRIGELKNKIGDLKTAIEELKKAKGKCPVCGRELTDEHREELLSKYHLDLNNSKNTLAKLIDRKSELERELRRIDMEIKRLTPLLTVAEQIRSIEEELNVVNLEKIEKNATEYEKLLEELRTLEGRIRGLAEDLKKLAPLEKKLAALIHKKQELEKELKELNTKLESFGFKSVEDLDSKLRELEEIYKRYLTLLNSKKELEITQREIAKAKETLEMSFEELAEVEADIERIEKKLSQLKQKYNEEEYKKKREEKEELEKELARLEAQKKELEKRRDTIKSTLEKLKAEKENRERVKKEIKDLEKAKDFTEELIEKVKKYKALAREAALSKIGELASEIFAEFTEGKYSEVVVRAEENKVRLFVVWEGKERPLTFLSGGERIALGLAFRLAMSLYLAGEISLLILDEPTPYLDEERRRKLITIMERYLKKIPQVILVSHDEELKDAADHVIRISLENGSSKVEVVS
binder,measurement,value
"S50/50s (dsDNA, phosphorothioate bonds at the last 5 linkages of the 3' end of strand 2 (CCCsTsGsCsAsG)) DNA 1: CTGCAGGGTTTTTGTTCCAGTCTGTAGCACTGTGTAAGACAGGCCAGATG DNA 2: CATCTGGCCTGTCTTACACAGTGCTACAGACTGGAACAAAAACCCTGCAG",binding result,binds
